{"source": "patent US20190225705A1", "about": "(Bayer, published 2019)", "binders": {"B1": {"name": "humanized and germlined anti-FXI antibody TPP-3290 (antibody, human IgG1, kappa, V domains shown)", "VH": "EVTLRESGPALVKPTQTLTLTCTFSGFSLSTSGMGVSWIRQPPGKALEWLAHIDWDDDKYYSTSLKSRLTISKDTSKNQVVLTMTNMDPVDTATYYCARIRSSVYAHYYGMDYWGQGTTVTVSS", "VL": "DIVMTQSPDSLAVSLGERATISCKASQSVLYSGDNYLNWYQQKPGQPPKLLIYAASTLESGIPDRFSGSGSGTDFTLTISSLQAEDVAVYYCQQYNGTPWTFGGGTKVEIKR", "notes": "IgG expressed in HEK293-6E cells; also called TTP3290"}, "B2": {"name": "humanized and germlined anti-FXI antibody TPP-3238 (antibody, human IgG1, kappa, V domains shown)", "VH": "EVTLRESGPALVKPTQTLTLTCTFSGFSLSTSGMGVSWIRQPPGKALEWLAHIDWDDDKYYSTSLKSRLTISKDTSKNQVVLTMTNMDPVDTATYYCARIRSSVYYYYYGMDVWGQGTTVTVSS", "VL": "not shown", "notes": "IgG expressed in HEK293-6E cells"}, "B3": {"name": "humanized and germlined anti-FXI antibody TPP-3583 (antibody, human IgG1, kappa, V domains shown)", "VH": "EVTLRESGPALVKPTQTLTLTCTFSGFSLSTSGMGVGWIRQPPGKALEWLAHIDWDDDKYYSPSLKSRLTISKDTSKNQVVLTMTNMDPVDTATYYCARIRSSVYAHYYGMDYWGQGTTVTVSS", "VL": "DIVMTQSPDSLAVSLGERATISCKASQSVLYSGDNYLNWYQQKPGQPPKLLIYAASTLESGIPDRFSGSGSGTDFTLTISSLQAEDVAVYYCQQYNGDPWTFGGGTKVEIKR", "notes": "also called TTP-3583"}}, "key": {"[1]": {"biological_target": "T1, human coagulation factor XI (human, UniProt P03951 19-625)", "T1 construct": "Bought protein; also called FXI; fXI", "experiment": "ELISA on coated human FXI", "protocol": "(§1) A standard ELISA format was used for analyzing the binding affinity of antibodies of this invention to FXI. Human FXI was obtained from Haematologic Technologies Inc. (human FXI; Cat. No. HCXI-0150), baboon FXI was generated as described below. These antigens were coated to black 384 well Maxisorp microtitter plates (Nunc; Cat. No: 460518), diluted to a concentration of 1 μg/ml in 1× Coating Buffer (Candor Bioscience; Cat. No. 121125). Plates were incubated overnight at 4° C. After ovemight incubation, plates were washed 2× with 50 μl/well using Phosphate Buffered Saline (PBS, SigmaAldrich, Cat. No. D8662)+0.05% Tween 20 (SigmaAldrich, Cat. No. P9416). Following this, 50 μl/well of blocking buffer (Smart Block; Candor Bioscience; Cat. No. 113500) was added and the plates incubated for 1 hour at room temperature. Afterwards, plates were washed for 3× using 50 μl/well of a PBS+0.05% Tween 20 buffer. Antibodies of this invention were added at different concentrations in a final volume of 30 μl/well. Plates were incubated for 1 hour at room temperature. Following this incubation step, plates were washed for 3× using 50 μl/well of a PBS+0.05% Tween 20 buffer. For the detection of bound candidate antibodies, the anti-h-Fc-POD antibody (Sigma; Cat. No. A0170) was diluted by the factor of 1:10000 in 10% Blocking Buffer. […]"}, "[2]": {"biological_target": "T1, human coagulation factor XI", "experiment": "ELISA on coated human FXI, anti-h-Fc-POD detection", "protocol": "as §1"}, "[3]": {"biological_target": "T1, human coagulation factor XI", "experiment": "competitive ELISA on coated FXI, competitor biotinylated 1A6"}}, "data": [{"binder": "B1", "values": [{"measurement": "binding result", "setting": "[1]", "value": "binds"}]}, {"binder": "B2", "values": [{"measurement": "binding result", "setting": "[2]", "value": "binds"}]}, {"binder": "B3", "values": [{"measurement": "binding result", "setting": "[3]", "value": "binds"}]}]}
